From PMC314469, “Protein Interaction Networks by Proteome Peptide Scanning” (PLoS Biology, 2004)

T1: Boi1 SH3 (BOI1_YEAST), P38041
T1 chain: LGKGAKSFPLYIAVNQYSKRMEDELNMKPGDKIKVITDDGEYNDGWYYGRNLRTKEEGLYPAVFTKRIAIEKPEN

T2: Boi2 SH3 (BOI2_YEAST), P39969
T2 chain: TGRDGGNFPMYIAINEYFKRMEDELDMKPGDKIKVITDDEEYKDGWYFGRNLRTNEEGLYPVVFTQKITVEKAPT

T3: Myo5 SH3 (MYO5_YEAST), Q04439
T3 chain: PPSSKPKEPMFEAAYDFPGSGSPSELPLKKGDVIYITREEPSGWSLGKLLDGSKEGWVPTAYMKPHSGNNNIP

T4: Rvs167 SH3 (RV167_YEAST), P39743
T4 chain: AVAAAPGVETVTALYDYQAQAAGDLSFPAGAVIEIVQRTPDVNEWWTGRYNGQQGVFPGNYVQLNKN

T5: Yfr024 SH3 (LSB3_YEAST), P43603
T5 chain: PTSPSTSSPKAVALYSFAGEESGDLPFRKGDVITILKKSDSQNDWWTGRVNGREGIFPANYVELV

T6: Yhr016c SH3 (YSC84_YEAST), P32793
T6 chain: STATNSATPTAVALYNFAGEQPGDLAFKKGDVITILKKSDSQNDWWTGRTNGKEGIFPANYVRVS

B1: YER032W 254-267 (peptide)
chain: LSFDRPPPLTPEKN
B2: YOL152W 75-88 (peptide)
chain: LPEKKNSPTTPSVF
B3: YDL077C 56-69 (peptide)
chain: LQNAKNDPLPPVIE
B4: YKL101W 1214-1227 (peptide)
chain: LSKLRLSPENPSNT
B5: YKL097C 62-75 (peptide)
chain: LPLPKLRPPRPTFA
B6: YBR218C 505-518 (peptide)
chain: LPKLKSNPSVPHLH
B7: YBR083W 422-435 (peptide)
chain: LSKVRGRPMYPRPA
B8: YHR099W 3263-3276 (peptide)
chain: LPFPRKNPKLPENT
B9: YOR178C 9-22 (peptide)
chain: LSPAKARPSFPHND
B10: YBR055C 692-705 (peptide)
chain: LSGTRLVPNSPLLW
B11: YBL035C 565-578 (peptide)
chain: LQQRRYYPIFPGSI
B12: YCL051W 94-107 (peptide)
chain: LPEPRFYPLSPKNN
B13: YPL020C 12-25 (peptide)
chain: LQYHKKNPYSPLFS
B14: YBL101C 847-860 (peptide)
chain: LRISKPDPESPSKL
B15: YNL007C 295-308 (peptide)
chain: LPLSRVQPVQPSQT
B16: YCL027W 415-428 (peptide)
chain: LSRSKPLPLTPNSK

Biological target: T1, Boi1 SH3 (BOI1_YEAST), P38041
Experiment: SPOT array

| normalised SPOT signal, Boehringer light units (BLU); mean over the file's lines of this peptide | Binder |
| --- | --- |
| 92.6 | B1 |
| 88.9 | B2 |
| 120 | B3 |
| 471 | B4 |
| 3930 | B5 |
| 843 | B6 |
| 479 | B7 |
| 289 | B8 |
| 807 | B9 |
| 73.7 | B10 |
| 6230 | B11 |
| 95.3 | B12 |
| 451 | B13 |
| 242 | B14 |
| 31.9 | B15 |
| 642 | B16 |

Biological target: T2, Boi2 SH3 (BOI2_YEAST), P39969
Experiment: SPOT array

| normalised SPOT signal, Boehringer light units (BLU); mean over the file's lines of this peptide | Binder |
| --- | --- |
| 0 | B1 |
| 0 | B2 |
| 21.8 | B3 |
| 33.2 | B4 |
| 3.7 | B5 |
| 20.5 | B6 |
| 37 | B7 |
| 38.3 | B8 |
| 31.9 | B9 |
| 29.6 | B10 |
| 472 | B11 |
| 47 | B12 |
| 99.3 | B13 |
| 0.6 | B14 |
| 27.1 | B15 |
| 86.5 | B16 |

Biological target: T3, Myo5 SH3 (MYO5_YEAST), Q04439
Experiment: SPOT array

| normalised SPOT signal, Boehringer light units (BLU); mean over the file's lines of this peptide | Binder |
| --- | --- |
| 174 | B1 |
| 102 | B2 |
| 58.8 | B3 |
| 157 | B4 |
| 77900 | B5 |
| 193 | B6 |
| 752 | B7 |
| 147 | B8 |
| 213 | B9 |
| 432 | B10 |
| 279 | B11 |
| 289 | B12 |
| 318 | B13 |
| 246 | B14 |
| 122 | B15 |
| 324 | B16 |

Biological target: T4, Rvs167 SH3 (RV167_YEAST), P39743
Experiment: SPOT array

| normalised SPOT signal, Boehringer light units (BLU); mean over the file's lines of this peptide | Binder |
| --- | --- |
| 91.3 | B1 |
| 67.3 | B2 |
| 47 | B3 |
| 37.4 | B4 |
| 87.3 | B5 |
| 52.3 | B6 |
| 92.6 | B7 |
| 40.2 | B8 |
| 174 | B9 |
| 1460 | B10 |
| 91 | B11 |
| 49.4 | B12 |
| 208 | B13 |
| 109 | B14 |
| 19.3 | B15 |
| 394 | B16 |

What follows are binders tested against Sho1 SH3 (SHO1_YEAST), P40073 (assay: SPOT array).
Chain of Sho1 SH3 (SHO1_YEAST), P40073 (P40073 295-366): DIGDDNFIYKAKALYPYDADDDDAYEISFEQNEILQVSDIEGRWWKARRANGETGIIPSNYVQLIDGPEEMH

| normalised SPOT signal, Boehringer light units (BLU); mean over the file's lines of this peptide | Binder |
| --- | --- |
| 48.1 | B1 |
| 54.9 | B2 |
| 0.2 | B3 |
| 54.8 | B4 |
| 76.3 | B5 |
| 114 | B6 |
| 82.7 | B7 |
| 149 | B8 |
| 53.3 | B9 |
| 94 | B10 |
| 38.8 | B11 |
| 33 | B12 |
| 63.3 | B13 |
| 22.3 | B14 |
| 32.8 | B15 |
| 55900 | B16 |

Biological target: T5, Yfr024 SH3 (LSB3_YEAST), P43603
Experiment: SPOT array

| normalised SPOT signal, Boehringer light units (BLU); mean over the file's lines of this peptide | Binder |
| --- | --- |
| 124 | B1 |
| 11.4 | B2 |
| 10.7 | B3 |
| 27.1 | B4 |
| 16600 | B5 |
| 71.1 | B6 |
| 342 | B7 |
| 322 | B8 |
| 2350 | B9 |
| 1410 | B10 |
| 474 | B11 |
| 202 | B12 |
| 73.4 | B13 |
| 205 | B14 |
| 163 | B15 |
| 837 | B16 |

Biological target: T6, Yhr016c SH3 (YSC84_YEAST), P32793
Experiment: SPOT array

| normalised SPOT signal, Boehringer light units (BLU); mean over the file's lines of this peptide | Binder |
| --- | --- |
| 7.4 | B1 |
| 22.9 | B2 |
| 37.2 | B3 |
| 7.9 | B4 |
| 4270 | B5 |
| 5.2 | B6 |
| 51.9 | B7 |
| 44.2 | B8 |
| 47.2 | B9 |
| 80.1 | B10 |
| 44.5 | B11 |
| 30.9 | B12 |
| 80.3 | B13 |
| 74.5 | B14 |
| 21 | B15 |
| 105 | B16 |
